Measured values from article PMC8362221.

Target: Idelvion (commercial albumin-fused factor IX) (human) (UniProt P02768)
Assay: SPR

soluble monomeric human neonatal Fc receptor, His-tagged (hFcRn‐His) (from UniProt P55899;P61769)
Kd: 150 nM
